B1: YKL117W_1 (protein, UniProt P28707 2-216, looked up)
Co-chaperone protein SBA1: SDKVINPQVAWAQRSSTTDPERNYVLITVSIADCDAPELTIKPSYIELKAQSKPHVGDENVHHYQLHIDLYKEIIPEKTMHKVANGQHYFLKLYKKDLESEYWPRLTKEKVKYPYIKTDFDKWVDEDEQDEVEAEGNDAAQGMDFSQMMGGAGGAGGAGGMDFSQMMGGAGGAGSPDMAQLQQLLAQSGGNLDMGDFKENDEEDEEEEIEPEVKA
B2: YGR229C_1 (protein, UniProt P32566 1-505, looked up)
Cell wall assembly regulator …: MDLFKRKVKEWVYSLSTDDHYAEYNPDETPTFNMGKRLNSNNGQVNPSQMHLNSVDEEMSMGFQNGVPSNEDINIDEFTSTESNDGVSETLLAWRHIDFWTSEHNPDLNATLSDPCTQNDITHAEEDLEVSFPNPVKASFKIHDGQEDLESMTGTSGLFYGFQLMTLDQVVAMTQAWRNVAKNLNKRSQQGLSHVTSTGSSSSMERLNGNKFKLPNIPDQKSIPPNAVQPVYAHPAWIPLITDNAGNHIGVDLAPGPNGKYAQIITFGRDFDTKFVIAENWGEFLLSFANDLEAGNWYLVDDNDDYFSGDGELVFRDKKSNGPIQDYFEVLKRRTWIKYQENLRSQQQKSQPDTSLQEQKYVPASQKKVAAEQPSTLNAESIKGEDSGSADVQSVQDHESVKIVKTEPSEAETTTVNTESLGQAEHEIKADNVDIKQESERKEDEKQPKVEEKEHVENEHVTESAKKDDDVNKQTEEMNKKEENEIRSDDAKVEEAREEFENIAL
B3: YFR024C-A_1 (protein, UniProt P43603 1-459, looked up)
LAS seventeen-binding protein …: MGINNPIPRSLKSETKKAAKILASFVKPNQVFGADQVIPPDVLKRAKGLAIITILKAGFLFSGRAGSGVIVARLKDGTWSAPSAIAMAGAGAGGMVGIELTDFVFILNTQDAVKSFSEFGTITLGGNVSVSAGPLGRSAEAAASASAGGVAAVFAYSKSKGLFAGVSVEGSAIIERREANRKFYGDNCTAKMILSGRIRPPPAVDPLFRVLESRAFNYRPSNGGRGSFDDDEDDYYDDDDYYNDIPSSFSSTDASSTRPNTRSTRRRAQSGSRYTFDDDDDDDDYGTGYSRNSRLAPTNSGGSGGKLDDPSGASSYYASHRRSGTAQSRARSSRNRWADDEYDDYDDDYESGYRRGNGRDRTKDREVDDLSNRFSKSRISSASTPQTSQGRFTAPTSPSTSSPKAVALYSFAGEESGDLPFRKGDVITILKKSDSQNDWWTGRVNGREGIFPANYVELV
B4: YFL010C_1 (protein, UniProt P43582 1-211, looked up)
WW domain-containing protein …: MAQSKSNPPQVPSGWKAVFDDEYQTWYYVDLSTNSSQWEPPRGTTWPRPKGPPPGVNNEKSSRQQADQAPPPYSSQSTPQVQAGAQAQQPRYYQPQQPQYPQYPQQQRYYPQQAPMPAAAPQQAYYGTAPSTSKGSGHGGAMMGGLLGVGAGLLGGAMLEHAFDDHNYDGPDTVVVENNYYGDDAGGSDGGFDDAGGFDGGFDDGFDGSDF
B5: YBL007C_1 (protein, UniProt P32790 1-1244, looked up)
Actin cytoskeleton-regulatory …: MTVFLGIYRAVYAYEPQTPEELAIQEDDLLYLLQKSDIDDWWTVKKRVIGSDSEEPVGLVPSTYIEEAPVLKKVRAIYDYEQVQNADEELTFHENDVFDVFDDKDADWLLVKSTVSNEFGFIPGNYVEPENGSTSKQEQAPAAAEAPAATPAAAPASAAVLPTNFLPPPQHNDRARMMQSKEDQAPDEDEEGPPPAMPARPTATTETTDATAAAVRSRTRLSYSDNDNDDEEDDYYYNSNSNNVGNHEYNTEYHSWNVTEIEGRKKKKAKLSIGNNKINFIPQKGTPHEWSIDKLVSYDNEKKHMFLEFVDPYRSLELHTGNTTTCEEIMNIIGEYKGASRDPGLREVEMASKSKKRGIVQYDFMAESQDELTIKSGDKVYILDDKKSKDWWMCQLVDSGKSGLVPAQFIEPVRDKKHTESTASGIIKSIKKNFTKSPSRSRSRSRSKSNANASWKDDELQNDVVGSAAGKRSRKSSLSSHKKNSSATKDFPNPKKSRLWVDRSGTFKVDAEFIGCAKGKIHLHKANGVKIAVAADKLSNEDLAYVEKITGFSLEKFKANDGSSSRGTDSRDSERERRRRLKEQEEKERDRRLKERELYELKKARELLDEERSRLQEKELPPIKPPRPTSTTSVPNTTSVPPAESSNNNNSSNKYDWFEFFLNCGVDVSNCQRYTINFDREQLTEDMMPDINNSMLRTLGLREGDIVRVMKHLDKKFGRENIASIPTNATGNMFSQPDGSLNVATSPETSLPQQLLPQTTSPAQTAPSTSAETDDAWTVKPASKSESNLLSKKSEFTGSMQDLLDLQPLEPKKAAASTPEPNLKDLEPVKTGGTTVPAAPVSSAPVSSAPAPLDPFKTGGNNILPLSTGFVMMPMITGGDMLPMQRTGGFVVPQTTFGMQSQVTGGILPVQKTGNGLIPISNTGGAMMPQTTFGAAATVLPLQKTGGGLIPIATTGGAQFPQTSFNVQGQQQLPTGSILPVQKTANGLISANTGVSMPTVQRTGGTMIPQTSFGVSQQLTGGAMMTQPQNTGSAMMPQTSFNAVPQITGGAMMPQTSFNALPQVTGGAMMPLQRTGGALNTFNTGGAMIPQTSFSSQAQNTGGFRPQSQFGLTLQKTGGIAPLNQNQFTGGAMNTLSTGGVLQQQQPQTMNTFNTGGVMQELQMMTTFNTGGAMQQPQMMNTFNTDGIMQQPQMMNTFNTGGAMQQPQQQALQNQPTGFGFGNGPQQSRQANIFNATASNPFGF
B6: YGR281W_1 (protein, UniProt P53049 1-1477, looked up)
Oligomycin resistance …: MTITVGDAVSETELENKSQNVVLSPKASASSDISTDVDKDTSSSWDDKSLLPTGEYIVDRNKPQTYLNSDDIEKVTESDIFPQKRLFSFLHSKKIPEVPQTDDERKIYPLFHTNIISNMFFWWVLPILRVGYKRTIQPNDLFKMDPRMSIETLYDDFEKNMIYYFEKTRKKYRKRHPEATEEEVMENAKLPKHTVLRALLFTFKKQYFMSIVFAILANCTSGFNPMITKRLIEFVEEKAIFHSMHVNKGIGYAIGACLMMFVNGLTFNHFFHTSQLTGVQAKSILTKAAMKKMFNASNYARHCFPNGKVTSFVTTDLARIEFALSFQPFLAGFPAILAICIVLLIVNLGPIALVGIGIFFGGFFISLFAFKLILGFRIAANIFTDARVTMMREVLNNIKMIKYYTWEDAYEKNIQDIRTKEISKVRKMQLSRNFLIAMAMSLPSIASLVTFLAMYKVNKGGRQPGNIFASLSLFQVLSLQMFFLPIAIGTGIDMIIGLGRLQSLLEAPEDDPNQMIEMKPSPGFDPKLALKMTHCSFEWEDYELNDAIEEAKGEAKDEGKKNKKKRKDTWGKPSASTNKAKRLDNMLKDRDGPEDLEKTSFRGFKDLNFDIKKGEFIMITGPIGTGKSSLLNAMAGSMRKTDGKVEVNGDLLMCGYPWIQNASVRDNIIFGSPFNKEKYDEVVRVCSLKADLDILPAGDMTEIGERGITLSGGQKARINLARSVYKKKDIYLFDDVLSAVDSRVGKHIMDECLTGMLANKTRILATHQLSLIERASRVIVLGTDGQVDIGTVDELKARNQTLINLLQFSSQNSEKEDEEQEAVVAGELGQLKYESEVKELTELKKKATEMSQTANSGKIVADGHTSSKEERAVNSISLKIYREYIKAAVGKWGFIALPLYAILVVGTTFCSLFSSVWLSYWTENKFKNRPPSFYMGLYSFFVFAAFIFMNGQFTILCAMGIMASKWLNLRAVKRILHTPMSYIDTTPLGRILNRFTKDTDSLDNELTESLRLMTSQFANIVGVCVMCIVYLPWFAIAIPFLLVIFVLIADHYQSSGREIKRLEAVQRSFVYNNLNEVLGGMDTIKAYRSQERFLAKSDFLINKMNEAGYLVVVLQRWVGIFLDMVAIAFALIITLLCVTRAFPISAASVGVLLTYVLQLPGLLNTILRAMTQTENDMNSAERLVTYATELPLEASYRKPEMTPPESWPSMGEIIFENVDFAYRPGLPIVLKNLNLNIKSGEKIGICGRTGAGKSTIMSALYRLNELTAGKILIDNVDISQLGLFDLRRKLAIIPQDPVLFRGTIRKNLDPFNERTDDELWDALVRGGAIAKDDLPEVKLQKPDENGTHGKMHKFHLDQAVEEEGSNFSLGERQLLALTRALVRQSKILILDEATSSVDYETDGKIQTRIVEEFGDCTILCIAHRLKTIVNYDRILVLEKGEVAEFDTPWTLFSQEDSIFRSMCSRSGIVENDFENRS
B7: YHR114W_1 (protein, UniProt P38822 1-633, looked up)
Protein BZZ1: MSADLSIGNEIKDSFKETHKWVQNNLKWLKDIEQFYRERAKLEKDYSERLSRLSAEYFNKKSSTSVPISVGDTPTTTPGSIEAAGVVAWNEILSQTDMISKDHDQLSTDFENHVANQLSGLFTKLDMTLSKINGFNNDMVNKKDNIYHELEKAKKDYDEACSTMEMARNRYTKASNDRNKKKLDEKEMEMNKCKNEYLIKINQANRTKDKYYFQDVPEVLDLLQDVNEAKTLFLNDLWLKAASVENDLGANVSKRLQAANSVVKQNKPSLNTAIFIKHNLKNWKEPQDFVYKPSPVWHDDEKFAVPSSLEVEDLRIKLAKAENDYNSLQDKTQNELSKLSTLNKIKHEMKTNEDNINATKFYDTLKEYLNVVSPFTSHETLKLQAEVQIESIQNNVPEEYDLSTDNIDLSKTKKKSGIFSKFKHNILNVDSKPSSGGSTGNGNGGPLHITSLFNTSRRTRLGSAPNNAGEDSDNNSIRTTSTNNTKKTTQNSSDDGKNKVLYAYVQKDDDEITITPGDKISLVARDTGSGWTKINNDTTGETGLVPTTYIRISSAATVKANDRGPAPEVPPPRRSTLPVRTMEAIYAYEAQGDDEISIDPGDIITVIRGDDGSGWTYGECDGLKGLFPTSYCK

System: PPIs identified as affected by the SH3 domain deletions
Experiment: Liquid DHFR-PCA low-throughput validation of PPIs affected by SH3 deletion (Fig. S1D-E)
Format: cell-based, Saccharomyces cerevisiae
Settings: label = prey, liquid DHFR-PCA, prey _1 = lost, _2 = gained in screen
Method: Liquid DHFR-PCA low-throughput experiments were performed to validate the PPIs identified as affected by the SH3 domain deletions in the high-throughput solid DHFR-PCA screen (256 PPIs weaker or lost and 116 PPIs stronger or gained following domain deletions). Mating and the diploid selection were performed as described for the large-scale experiment, with the exception that the plates were in 384 formats. Following the second diploid selection, diploid cells were inoculated in a 96 v-shaped well plate using a robotically manipulated 96 pin tool in a synthetic complete medium with MSG at pH 6.0 with NAT and HPH. After 48 h of growth, optical density (OD) was read using a TECAN Infinite F200 Pro, and dilutions to 1 OD in sterile nanopure water were prepared. Cells were then diluted to 0.1 OD by combining 25 µl of cell suspension at OD = 1 and 225 µl of PCA selection media without agar in a 96-wells plate. Plates were incubated at 30 °C in a TECAN Infinite M Nano and OD was monitored each 15 min for 72 h.

Row | Molecule | Ratio (Deletedscore / WTscore) (bait BBC1) | Ratio (Deletedscore / WTscore) (bait MYO3) | Ratio (Deletedscore / WTscore) (bait MYO5) | also measured
1 | B1 | 0.6627 |  |  | 
2 | B2 | 0.6664 |  |  | Ratio (Deletedscore / WTscore) (bait BEM1-1): 0.1513
3 | B3 | 0.507 | 0.7743 | 0.8345 | Ratio (Deletedscore / WTscore) (bait BZZ1-1): 0.736; Ratio (Deletedscore / WTscore) (bait HOF1): 1.194; Ratio (Deletedscore / WTscore) (bait RVS167): 0.8585
4 | B4 | 0.6877 |  |  | 
5 | B5 | 0.5353 | 0.6734 | 0.8649 | Ratio (Deletedscore / WTscore) (bait LSB1): 0.9074; Ratio (Deletedscore / WTscore) (bait PIN3): 0.824
6 | B6 | 0.5928 | 0.4945 | 0.6948 | Ratio (Deletedscore / WTscore) (bait BEM1-2): 0.6055
7 | B7 | 0.6315 | 0.5608 | 0.7759 | Ratio (Deletedscore / WTscore) (bait LSB3): 0.7048; Ratio (Deletedscore / WTscore) (bait RVS167): 0.6256

Reference: PMC7954794, “Protein context shapes the specificity of SH3 domain-mediated interactions in vivo” (Nature Communications, 2021)
